Where a SMILES comes first, the peptide text is derived from it. [ ]: non-standard residue; d: D form. Dolaproine = CO[C@@H]([C@@H]1CCCN1)[C@@H](C)C(=O)O; Dil = CC[C@H](C)[C@H](NC)[C@@H](CC(=O)O)OC; NMeV = CN[C@H](C(=O)O)C(C)C
Legend:
[1] = test system: A2780; test: Cell killing assay, A2780; assay type: cell-based; conditions: A2780 human ovarian cancer cell line
Method: (§1) In this example, the anti-cancer effect of CAN001 antibody-drug conjugate was tested with CellTiter-Glo cell viability assay in a 96-well plate.
(§2) Human ovarian cancer cell lines: OVCAR-3, A2780, and 3A0, all from ATCC.
(§3) Cells were seeded in a 96-well cell culture plate with 1,000 cells per well, and the total amount of the culture medium per well was controlled to 200 μL. After the cells adhered to the wall, the cells were treated with corresponding drugs, and the drugs were withdrawn at different time points (0, 24 h, 48 h, 72 h and 96 h), and MTS detection solution (10 μL MTS reagent+190 μL complete medium) (MTS cell proliferation kit (colorimetry) from AmyJet Scientific) was added. Then, the 96-well cell culture plate was incubated in a CO2 cell incubator for about 2 h away from light. Then, the cell culture plate was taken out and was measured at a wavelength of 492 nm to determine the absorbances of different groups of cells.
(§4) % inhibition and IC50 of each compound were calculated with XLFit curve fitting software.

[2] = test system: 3AO; test: Cell killing assay, 3AO; assay type: cell-based; conditions: 3AO human ovarian cancer cell line
Method: as §1, §2, §3, §4

[3] = test system: OVCAR-3; test: Cell killing assay, OVCAR-3; assay type: cell-based; conditions: OVCAR-3 human ovarian cancer cell line
Method: as §1, §2, §3, §4

[4] = biological target: T1, human FSHR (Homo sapiens, UniProt P23945); test: Flow cytometry analysis of CAN001 antibody on HEK293T cells expressing FSHR; assay type: binding; conditions: for positive stained rate of the HEK293T cells: HEK293T cells expressing FSHR
T1 construct: a fragment containing the FSHR gene was obtained by PCR with the cDNA as a template and FSHR-F and FSHR-R as primers; expressed in transfected cells; host or cells: HEK293T
T1 sequence (P23945 18-695): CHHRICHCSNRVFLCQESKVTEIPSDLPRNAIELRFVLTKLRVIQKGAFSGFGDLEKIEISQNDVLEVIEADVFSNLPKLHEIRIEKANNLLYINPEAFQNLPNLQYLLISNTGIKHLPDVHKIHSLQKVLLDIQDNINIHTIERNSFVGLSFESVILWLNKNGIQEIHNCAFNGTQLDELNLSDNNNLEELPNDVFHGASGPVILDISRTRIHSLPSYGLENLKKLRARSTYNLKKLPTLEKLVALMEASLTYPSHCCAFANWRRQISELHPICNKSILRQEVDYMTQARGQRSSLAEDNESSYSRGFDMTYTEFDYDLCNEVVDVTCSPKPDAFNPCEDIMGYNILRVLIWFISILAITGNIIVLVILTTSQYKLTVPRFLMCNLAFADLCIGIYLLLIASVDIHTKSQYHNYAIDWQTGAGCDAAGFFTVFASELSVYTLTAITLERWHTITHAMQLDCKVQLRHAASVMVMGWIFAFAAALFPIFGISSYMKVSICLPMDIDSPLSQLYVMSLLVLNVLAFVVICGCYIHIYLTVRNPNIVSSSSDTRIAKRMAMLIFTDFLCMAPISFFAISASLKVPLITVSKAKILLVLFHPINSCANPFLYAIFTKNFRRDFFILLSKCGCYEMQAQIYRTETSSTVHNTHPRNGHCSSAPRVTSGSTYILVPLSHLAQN
Method: HEK293T cells were transfected with pMSGβ3_FSHR plasmid to obtain HEK293T cells expressing FSHR as the experimental group. HEK293T cells were transfected with pmaxGFP(Lonza) to obtain HEK293T cells expressing GFP protein as the negative control. After incubation with the supernatant containing the CAN001 antibody obtained in Example 3, the cells of the experimental group and negative control were stained with the CAN001 antibody and then the cells were washed and incubated with APC conjugated goat anti-mouse IgG secondary antibody. Flow cytometry was done with BD calibur and analyzed with Cellquest software.
In order to further screen the best CAN001 supernatant, HEK293T cells were co-transfected with a mixture of plasmids pcDNA3.1_CAN001 HC and pcDNA3.1_CAN001 LC with different proportions (mass ratios of pcDNA3.1_CAN001 HC to pcDNA3.1_CAN001 LC from left to right in FIG. 3 were 1:2, 1:1 and 1:3 respectively) and 25 kD linear PEI polymer according to a mass ratio of vector to polymer of 1:3. Seventy-two hours after transfection, the supernatant was collected and used to stain HEK293T cells expressing FSHR, and HEK293T cells expressing GFP protein were used as the negative control. The steps were as described above. […] The mass ratio of pcDNA3.1_CAN001 HC to pcDNA3.1_CAN001 LC of 1:2 was selected to prepare the supernatant containing CAN001 antibody.

Molecule `CC[C@H](C)[C@@H]([C@@H](CC(=O)N1CCC[C@H]1[C@H](OC)[C@@H](C)C(=O)N[C@@H](Cc1ccccc1)C(=O)O)OC)N(C)C(=O)[C@@H](NC(=O)[C@@H](NC)C(C)C)C(C)C` [MMAF, monomethylauristatin F] (H-[NMeV]V[Dil][Dolaproine]F-OH) has an IC50 [1] of 223 nM, an IC50 [2] of 301 nM and an IC50 [3] of 205 nM.

B1: CAN001: Mouse anti-human FSHR monoclonal antibody; light chain SEQ ID NO: 3, heavy chain SEQ ID NO: 4 (protein)
light: MALPVTALLLPLALLLHAARPQIVLTQSPVIMSASPGEKVTLTCSASSSVSSSYLYWYQQKPGSSSKLWIYSTSNLASGVPARFSGSGSGTSYSLTISSMEAEDAASYFCHQWSSYPPTFGGGTKLEIKRADAAPTVSIFPPSSEQLTSGGASVVCFLNNFYPKDINVKWKIDGSERQNGVLNSWTDQDSKDSTYSMSSTLTLTKDEYERHNSYTCEATHKTSTSPIVKSFNRNEC
heavy: MEFGLSWVFLVALFRGVQCASQVQLQQPGAELVKPGASVNLSCKASGYTFTSYWMHWVKQRPGQGREWIGEINPRNGRTNYNEKFKSKATLTVDKSSSTAYMQLSSLTSEDSAVYCCARLSVGFAYWGQGTLVTVSAAKTTAPSVYPLAPVCGDTTGSSVTLGCLVKGYFPEPVTLTWNSGSLSSGVHTFPAVLQSDLYTLSSSVTVTSSTWPSQSITCNVAHPASSTKVDKKLEPRGPTIKPCPPCKCPAPNAAGGPSVFIFPPKIKDVLMISLSPIVTCVVVDVSEDDPDVQISWFVNNVEVHTAQTQTHREDYNSTLRVVSALPIQHQDWMSGKEFKCKVNNKDLGAPIERTISKPKGSVRAPQVYVLPPPEEEMTKKQVTLTCMVTDFMPEDIYVEWTNNGKTELNYKNTEPVLDSDGSYFMYSKLRVEKKNWVERNSYSCSVVHEGLHNHHTTKSFSRTPGK
modifications: Light chain amino acid sequence; Heavy chain amino acid sequence
In the case of B1, the “staining of FSHR-expressing versus GFP-expressing HEK293T cells” value ([4]; supernatant containing CAN001 antibody, APC goat anti-mouse IgG secondary, GFP-expressing cells as negative control) is reported as “specifically stained FHSR-expressing cells but not GFP-expressing cells”, the “positive stained rate of the HEK293T cells” value (from here on “positive stained rate”) ([4]; supernatant from mass ratio pcDNA3.1_CAN001 HC to LC 1:1) is reported as 30.02% and the “positive stained rate” value ([4]; supernatant from mass ratio pcDNA3.1_CAN001 HC to LC 1:2) is reported as 38.3%. For the same molecule, the “positive stained rate” value ([4]; supernatant from mass ratio pcDNA3.1_CAN001 HC to LC 1:3) was 34.75% and the IC50 [3] was over 1000 nM.

Reference: patent US20240043548A1, “PREPARATION AND USE OF ANTI-FSHR ANTIBODY AND ANTIBODY-DRUG CONJUGATE THEREOF” (CANWELL (GZ) BIOTECH LIMITED, priority 2020, published 2024)
